Assay results reported in publication PMC3653949, “Dissection of Agonistic and Blocking Effects of CD200 Receptor Antibodies” (PLoS ONE, 2013).

Biological target: T1, CD200R(1)-rCD4d3+4 (extracellular domains of mouse CD200R allele 1 fused to rat CD4 domains 3 and 4) (mouse, UniProt Q9ES57 26-238, biotin at the biotinylation site)
T1 construct: mouse CD200R, allele CD200R(1) of C57BL/6 mice, the two extracellular domains; also called mCD200R; CD200R(1) rCD4d3+d4; source: 293T cells, transfected (pEF-BOS), tissue culture supernatant concentrated and biotinylated
T1 sequence (looked up): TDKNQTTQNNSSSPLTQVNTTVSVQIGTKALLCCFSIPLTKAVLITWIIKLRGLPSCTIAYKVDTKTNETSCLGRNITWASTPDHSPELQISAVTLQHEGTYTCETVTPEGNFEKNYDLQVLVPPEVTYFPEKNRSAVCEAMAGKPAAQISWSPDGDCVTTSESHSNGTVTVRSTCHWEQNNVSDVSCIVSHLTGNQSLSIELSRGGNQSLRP
Test: SPR; biotinylated CD200R(1)-rCD4d3+4, CD200R(2)-rCD4d3+4 and rCD4d3+4 from tissue culture supernatants immobilized on streptavidin coupled CM5 chip (726, 704, 681 RU); purified, gel filtered CD200-rCD4d3+4 (0.75 µM) passed over; BIAcore 3000, 25°C
Conditions: both partners purified

binding result: binds
B1: mouse CD200-rCD4d3+4 (extracellular domains of mouse CD200 fused to rat CD4 domains 3 and 4) (ligand, UniProt O54901 31-232, looked up)
chain: QVEVVTQDERKALHTTASLRCSLKTSQEPLIVTWQKKKAVSPENMVTYSKTHGVVIQPAYKDRINVTELGLWNSSITFWNTTLEDEGCYMCLFNTFGSQKVSGTACLTLYVQPIVHLHYNYFEDHLNITCSATARPAPAISWKGTGTGIENSTESHFHSNGTTSVTSILRVKDPKTQVGKEVICQVLYLGNVIDYKQSLDKG
modifications: biotin at the biotinylation site (form put on streptavidin coated fluorescent beads)
notes: mouse CD200, extracellular domains; also called soluble CD200; soluble purified CD200; source: 293T cells, transfected (pEF-BOS), tissue culture supernatant concentrated and biotinylated (on beads); purified and gel filtered (SPR)
